# Test results taken from patent US20060040319A1 (published 2006).
# Where no end group is shown, it is not given here.
# Biological target: Rh-(Crk-II)-Fl (mouse, UniProt Q64010 2-304, N-alpha-tetramethylrhodamine (Rh) on the N-terminal KRG peptide); Dapa(Fl) = diaminopropionic acid-fluorescein in the C-terminal peptide; K-epsilon-(Biotin) and C-terminal amide (present in the …)
# Test: cell-based or functional assay
# Chain of Rh-(Crk-II)-Fl (Q64010 other isoform, or with tags, fused parts or gaps limits assumed): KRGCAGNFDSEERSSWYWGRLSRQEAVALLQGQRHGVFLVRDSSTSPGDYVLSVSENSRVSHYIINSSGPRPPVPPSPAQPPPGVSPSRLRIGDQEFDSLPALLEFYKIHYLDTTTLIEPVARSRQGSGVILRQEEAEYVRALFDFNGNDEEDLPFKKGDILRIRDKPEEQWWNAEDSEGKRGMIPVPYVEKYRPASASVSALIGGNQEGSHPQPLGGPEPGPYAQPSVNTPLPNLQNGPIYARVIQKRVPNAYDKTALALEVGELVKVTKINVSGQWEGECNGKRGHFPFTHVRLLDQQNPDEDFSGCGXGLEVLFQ
binder,measurement,value
"PPPALPPKRRR-NH2 [PPPALPPKRRR-NH2, high affinity ligand for the N-SH3 domain of Crk]","reduction in the change in FRET after 60 minutes reaction with full length c-Abl, relative to the positive control",50%
